Experimental data from US20040176567A1, “Modified calcitonin” (priority 2001, published 2004).
Marks after values point to notes of the source that are not given here. Bridge positions count the residues as written; N and C are the ends. Ends that are not written are not given here.

Columns and labels:
[1] = Aggregation studies, turbidity at 340 nm; type: physicochemical; conditions: for Aggregation time (turbidity at 340 nm) / Aggregation time (development of turbidity at 340 nm) / Aggregation time (half time, turbidity at 340 nm): 37° C., pH 7.2
Procedure: Aggregation analysis was carried out as reported previously (Arvinte, T. et al., 1993, J. Biol. Chem, 268, 6415-6422) using PBS 5 mM sodium phosphate, 145 mM NaCl, pH 7.2. (sodium phosphate saline buffer) pH 7.2 and adding a minor amount of sodium azide to prevent bacterial growth (0.1%). Samples were always incubated at 37° C.
Aggregation was monitored by measuring turbidity at 340 nm. Different concentrations of peptide were tested.

T47D (HTB 133) cells = assay: Calcitonin activity by cyclic AMP intracellular accumulation; type: cell-based, Human; conditions: for cAMP stimulation compared with basal levels: saturation concentration 1·10^−6 M, 15 min at 37° C., T47D cells
Source text: Activity tests may be carried out in suitable animal models using, for example chickens or mice. Activity can also be monitored in vitro, for example in cellular cultures. LLC-PKI kidney cells may be used, for which calcitonin has been reported to increase alkaline phosphatase activity and cAMP levels Wohlwend A et al (1985) Biochem Biophys Commen 131 537-542, Miyamoto K. I. et al (1998) Jpn. J. Pharmacol 76.193-198. […] We used a combination of two previously described systems with some modifications (Zimmerman, U. et al, 1997, J. Endocrinol. 155, 423-431; Miyamoto, K. I. et al, 1998, Jpn. J. Pharmacol 76, 193-198). Human ductal carcinoma T47D (HTB 133) cells were used for the assays.
T47D (HTB 133) cells were purchased from the American Type Culture Collection (ATCC) and grown in RPMI-1640 modified medium (ATCC) containing 2 mM L-glutamine, 10 mM HEPES, 1 mM sodium pyruvate, 4.5 g/L glucose and 1.5 g/L sodium bicarbonate. This medium was supplemented with 10% heat-inactivated fetal calf serum, 25 μg/mL gentamycin and 100 nM dexamethasone, this last to enhance the expression of calcitonin receptors. Cells were grown in a humidified atmosphere of 95% air-5% CO2 at 37° C.
Cyclic AMP (cAMP) accumulation was used to measure the degree of stimulation upon incubation in the presence of different calcitonin peptides. Typically cells were grown in multi-well plates until confluency was reached and then washed with pre-heated DPBS-glucose (Gibco, Invitrogen) to remove any traces of fetal serum. Sample solutions were prepared by dissolving different amounts of hCT, sCT and 6 chR (6 CT) in DPBS-glucose supplemented with 0.1% BSA and 1 mM IBMX (3-isobuthyl-1-methylxanthine). After being washed, cells were incubated for 15 min at 37° C. in the presence of the peptide solutions. Medium was then removed by aspiration and cells were rapidly frozen on dry-ice and then kept at −80° C. until cAMP measurements were carried out.
Cyclic AMP content of different samples was measured using a commercial AMP enzyme immunoassay (EIA) system (Biotrak, Amersham-Biotech) according to manufacturer's specifications. Different dilutions of cellular extracts were measured in order to cover the whole range of stimulation caused by calcitonin incubation. Saturation concentrations (1·10^−6 M) of the three peptides (hCT, sCT & 6chR) were used to establish the maximum capacity of stimulation for each one of the different sequences. […] All three peptides show clear stimulation effects confirming the calcitonin-like activity of the engineered 6 chR (6 CT) peptide.

[2] = Secondary structure (helical content) by circular dichroism; type: physicochemical; conditions: for Helical content compared with hCT: neutral and low pH (7.0 and 3.0); for Helical content by CD: neutral pH (7.0), 25° C., ellipticity at 222 nm
Procedure: FIG. 2. Secondary structure of calcitonin peptides measured by circular dichroism. Experiments reflect the thermal denaturation profile of the peptides at pH 7.0 and 3.0 respectively. Ellipticity was measured at 222 nm and reflects the α-helical content of the peptides. Helical content based on CD spectra calculations (25° C.) according to Chen et al. (1974). Biochemistry 13, 3350-59.
Circular dichroism and Nuclear magnetic resonance were used to characterise the structural properties of human (hCT), salmon (sCT) and 6 chR (6 chR) calcitonin. Peptide concentration was estimated by amino acid analysis.

[3] = biological target: calcitonin receptors on human ductal carcinoma T47D (HTB 133) cells (human) (UniProt P30988); assay: cell-based or functional assay; conditions: scale: orders of magnitude compared with the basal levels
Chain of UniProt P30988 (P30988 25-474, stated change not applied): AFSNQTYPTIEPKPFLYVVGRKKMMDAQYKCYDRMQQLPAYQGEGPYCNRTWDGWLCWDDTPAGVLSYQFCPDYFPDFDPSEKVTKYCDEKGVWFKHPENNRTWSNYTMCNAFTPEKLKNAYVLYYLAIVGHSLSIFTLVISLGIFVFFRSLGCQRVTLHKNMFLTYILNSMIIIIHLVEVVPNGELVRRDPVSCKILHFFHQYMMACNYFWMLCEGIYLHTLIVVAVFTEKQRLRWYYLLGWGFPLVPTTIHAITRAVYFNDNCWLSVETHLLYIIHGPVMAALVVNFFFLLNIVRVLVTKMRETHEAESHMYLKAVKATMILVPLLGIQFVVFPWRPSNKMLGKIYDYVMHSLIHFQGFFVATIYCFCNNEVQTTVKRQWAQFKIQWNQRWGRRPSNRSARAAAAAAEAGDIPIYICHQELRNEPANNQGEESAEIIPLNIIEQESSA

CGNLSTCMLGKLTQELRKLHTFPQTAIGVGAP (disulfide 1-7; ends not checked) [6chR]
Time required to aggregate relative to the human peptide [1]: at least two orders of magnitude larger
Aggregation time (turbidity at 340 nm) ([1]; 1 mg/mL filtered 0.5 μm, no aggregation detected at the end of the experiment): (>10 months)^c
Aggregation time (turbidity at 340 nm) ([1]; 10 mM (~35 mg/mL) unfiltered): 18 days
Aggregation time (turbidity at 340 nm) ([1]; 10 mg/mL filtered 0.5 μm, no aggregation detected at the end of the experiment): (>10 months)^c
Aggregation time (turbidity at 340 nm) ([1]; 10 mg/mL unfiltered, no aggregation detected at the end of the experiment): (>10 months)^c
Aggregation behaviour compared with human calcitonin (FIG. 1) ([1]; 35 mg/mL, solutions not filtered): aggregates much more slowly than the human form
Time without detectable aggregation ([1]; concentrations of 10 mg/mL or below, unfiltered and filtered solutions): > 10 months
cAMP stimulation effect compared with hCT and sCT (T47D (HTB 133) cells; 1·10^−6 M, T47D cells (FIG. 3)): clearly higher than that of the hCT and even the sCT peptide
cAMP stimulation compared with basal levels (T47D (HTB 133) cells): close to three orders of magnitude
Helical content compared with hCT [2]: enhanced helical content
Helical content by CD [2]: 21.1%

CGNLSTCMLGTYTQDFNKFHTFPQTAIGVGAP [Human, reference compound]
Aggregation time (development of turbidity at 340 nm) ([1]; 1 mg/mL filtered 0.5 μm): ˜45 days
Aggregation time (half time, turbidity at 340 nm) ([1]; 10 mM (~35 mg/mL) unfiltered): 4 h
Aggregation time (development of turbidity at 340 nm) ([1]; 10 mg/mL filtered 0.5 μm): ˜26 days
Aggregation time (half time, turbidity at 340 nm) ([1]; 10 mg/mL unfiltered): ˜30 hours
cAMP stimulation compared with basal levels (T47D (HTB 133) cells): close to three orders of magnitude
Helical content by CD [2]: 11.3%

CSNLSTCVLGKLSQELHKLQTYPRTNTGSGTP [Salmon-1]
cAMP stimulation compared with basal levels (T47D (HTB 133) cells): close to three orders of magnitude
Helical content compared with hCT [2]: higher helical content than hCT
Helical content by CD [2]: 22.5%

salmon calcitonin (from UniProt P01263 83-114) (peptide)
intracellular cAMP accumulation in T47D cells, peptide at saturation concentration 1·10^-6 M, 15 min, cAMP EIA [3]: 3
